Square brackets hold non-standard residues; d marks the D form. dNMeF = CN[C@H](Cc1ccccc1)C(=O)O; NMeA = CN[C@@H](C)C(=O)O

IC50 data for one molecule are collected here from US20200283483A1 (TECHNISCHE UNIVERSITAET MUENCHEN, published 2020).

Experiment [1] concerns the target T1, human αvβ3-integrin (human, UniProt P06756 31-992; P05106 27-718).
T1 construct: soluble integrin bought from R&D; also called integrin αvβ3
Put plainly: solid-phase competition ELISA, soluble αvβ3 on coated vitronectin.

Experiment [2] addresses T2, human αvβ5-integrin (human, UniProt P06756 31-992; P18084 24-719, limits assumed).
T2 construct: soluble integrin bought from Millipore
Put plainly: solid-phase competition ELISA, soluble αvβ5 on coated vitronectin.

The target in experiment [3] is T3, human αvβ6-Integrin (human, UniProt P06756 31-992; P18564 22-707).
T3 construct: soluble integrin bought from R&D
T3 sequence (P06756 31-992 limits assumed, chain 1 of 2): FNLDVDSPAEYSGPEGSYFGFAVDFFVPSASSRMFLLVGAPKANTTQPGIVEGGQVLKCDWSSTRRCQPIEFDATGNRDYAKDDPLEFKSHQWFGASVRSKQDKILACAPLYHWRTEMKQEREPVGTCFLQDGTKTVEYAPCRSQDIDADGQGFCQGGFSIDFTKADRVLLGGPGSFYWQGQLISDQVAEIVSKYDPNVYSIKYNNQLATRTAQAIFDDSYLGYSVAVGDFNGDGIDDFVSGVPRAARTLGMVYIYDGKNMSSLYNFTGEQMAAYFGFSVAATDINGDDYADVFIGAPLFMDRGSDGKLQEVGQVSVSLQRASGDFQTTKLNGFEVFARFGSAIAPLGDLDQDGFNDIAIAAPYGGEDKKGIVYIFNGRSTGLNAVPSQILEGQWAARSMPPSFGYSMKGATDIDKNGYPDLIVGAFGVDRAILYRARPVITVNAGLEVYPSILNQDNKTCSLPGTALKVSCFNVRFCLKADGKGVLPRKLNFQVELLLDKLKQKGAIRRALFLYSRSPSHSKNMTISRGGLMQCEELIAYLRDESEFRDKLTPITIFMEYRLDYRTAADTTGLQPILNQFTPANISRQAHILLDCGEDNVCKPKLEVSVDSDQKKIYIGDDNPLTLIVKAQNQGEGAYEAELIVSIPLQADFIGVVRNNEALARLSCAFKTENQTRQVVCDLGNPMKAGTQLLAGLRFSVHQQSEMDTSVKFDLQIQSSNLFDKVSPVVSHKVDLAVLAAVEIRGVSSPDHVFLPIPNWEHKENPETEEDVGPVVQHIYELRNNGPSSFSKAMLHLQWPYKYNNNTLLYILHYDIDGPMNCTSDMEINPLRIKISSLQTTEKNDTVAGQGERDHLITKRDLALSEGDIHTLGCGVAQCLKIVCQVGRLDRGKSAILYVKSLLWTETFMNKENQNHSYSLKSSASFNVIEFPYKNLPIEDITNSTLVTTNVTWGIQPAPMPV
T3 sequence (P18564 22-707 limits assumed, chain 2 of 2): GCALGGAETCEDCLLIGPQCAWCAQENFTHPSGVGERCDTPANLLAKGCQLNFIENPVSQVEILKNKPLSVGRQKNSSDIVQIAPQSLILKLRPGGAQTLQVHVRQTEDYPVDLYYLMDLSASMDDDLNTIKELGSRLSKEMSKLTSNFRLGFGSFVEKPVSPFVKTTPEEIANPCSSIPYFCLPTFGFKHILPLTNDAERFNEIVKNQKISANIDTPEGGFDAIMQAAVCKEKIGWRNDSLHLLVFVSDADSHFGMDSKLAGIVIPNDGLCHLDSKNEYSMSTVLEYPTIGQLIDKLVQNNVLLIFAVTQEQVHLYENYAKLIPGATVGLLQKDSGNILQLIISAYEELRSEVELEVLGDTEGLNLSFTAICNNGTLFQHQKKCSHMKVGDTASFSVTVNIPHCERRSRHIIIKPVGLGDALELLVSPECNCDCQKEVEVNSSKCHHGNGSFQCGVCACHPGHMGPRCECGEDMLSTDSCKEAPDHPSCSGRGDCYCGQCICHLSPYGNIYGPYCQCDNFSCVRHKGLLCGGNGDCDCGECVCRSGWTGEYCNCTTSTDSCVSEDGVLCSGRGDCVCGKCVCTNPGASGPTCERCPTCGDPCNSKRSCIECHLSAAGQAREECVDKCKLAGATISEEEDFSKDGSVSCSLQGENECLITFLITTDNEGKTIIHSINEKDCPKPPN
The experiment can be described thus: solid-phase competition ELISA, soluble αvβ6 on coated LAP (TGF-β). (In general: In an ELISA, binding on a coated surface is turned into a signal by an enzyme label.)

T1 sequence (P06756 31-992 limits assumed, chain 1 of 2): as the sequence (P06756 31-992 limits assumed, chain 1 of 2) above
T1 sequence (P05106 27-718 limits assumed, chain 2 of 2): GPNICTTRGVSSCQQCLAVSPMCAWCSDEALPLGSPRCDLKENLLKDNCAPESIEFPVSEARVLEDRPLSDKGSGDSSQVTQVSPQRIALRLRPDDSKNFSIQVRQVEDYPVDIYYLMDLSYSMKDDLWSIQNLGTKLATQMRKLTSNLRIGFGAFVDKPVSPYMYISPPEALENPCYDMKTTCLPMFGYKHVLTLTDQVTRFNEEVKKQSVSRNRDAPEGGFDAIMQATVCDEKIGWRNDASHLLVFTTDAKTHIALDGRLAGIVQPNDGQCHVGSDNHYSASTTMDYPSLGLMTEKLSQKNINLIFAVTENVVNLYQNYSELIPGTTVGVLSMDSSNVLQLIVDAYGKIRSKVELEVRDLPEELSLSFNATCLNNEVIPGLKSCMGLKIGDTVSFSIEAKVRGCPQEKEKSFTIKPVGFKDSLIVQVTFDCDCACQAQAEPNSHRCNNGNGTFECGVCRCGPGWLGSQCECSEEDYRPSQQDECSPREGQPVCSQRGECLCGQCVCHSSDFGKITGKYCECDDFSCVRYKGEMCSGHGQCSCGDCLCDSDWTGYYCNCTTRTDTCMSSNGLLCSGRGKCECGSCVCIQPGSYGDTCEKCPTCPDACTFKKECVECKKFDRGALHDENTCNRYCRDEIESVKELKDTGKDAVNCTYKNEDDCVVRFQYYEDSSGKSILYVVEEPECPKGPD
T2 sequence (P06756 31-992 limits assumed, chain 1 of 2): as the sequence (P06756 31-992 limits assumed, chain 1 of 2) above
T2 sequence (P18084 24-719 limits assumed, chain 2 of 2): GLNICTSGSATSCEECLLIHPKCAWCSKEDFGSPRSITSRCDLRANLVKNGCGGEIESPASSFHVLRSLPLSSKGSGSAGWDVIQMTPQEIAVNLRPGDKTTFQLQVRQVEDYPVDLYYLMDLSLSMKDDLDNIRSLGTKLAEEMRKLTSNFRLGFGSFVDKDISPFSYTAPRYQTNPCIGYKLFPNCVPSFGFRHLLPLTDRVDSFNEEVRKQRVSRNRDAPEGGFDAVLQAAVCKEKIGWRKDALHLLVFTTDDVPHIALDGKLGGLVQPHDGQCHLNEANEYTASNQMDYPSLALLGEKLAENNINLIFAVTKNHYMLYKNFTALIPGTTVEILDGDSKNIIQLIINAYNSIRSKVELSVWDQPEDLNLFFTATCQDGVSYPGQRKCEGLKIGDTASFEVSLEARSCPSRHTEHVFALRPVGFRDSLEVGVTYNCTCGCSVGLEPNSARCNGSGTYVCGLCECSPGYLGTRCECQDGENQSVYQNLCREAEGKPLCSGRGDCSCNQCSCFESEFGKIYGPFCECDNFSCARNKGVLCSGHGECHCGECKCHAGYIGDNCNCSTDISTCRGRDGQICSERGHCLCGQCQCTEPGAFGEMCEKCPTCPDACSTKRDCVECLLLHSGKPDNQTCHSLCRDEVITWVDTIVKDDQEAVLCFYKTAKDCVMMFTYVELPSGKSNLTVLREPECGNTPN

B1: peptide #30 c(*fRGDA*A) (peptide)
peptide: cyclo([dNMeF]RGDA[NMeA])
notes: scaffold NMe(1,6)
Broadly, the IC50 is the concentration that gives 50% inhibition. Take B1: the concentration for half-maximal inhibition (IC50) in experiment [1] is 0.6 nM; in experiment [2], 145 nM; in experiment [3] it was 120 nM.
